Results as given in the DeepSol protein solubility set.

Experiment: soluble on expression in E. coli; label from the status in PepcDB or PDB records

Row | Sequence | soluble on expression in E. coli
1 | PPLVANQVVTCPDKKSTAAVILTPTENHFTLKCPKTALTEPPTLAYSPNRQICPAGTTSSCTSKAVTLSSLIPEAEDSWWTGDSASLDTAGIKLTVPIEKFPVTTQTFVVGCIKGDDAQSCMVTVTVQARASSVVNNVARCSYGADSTLGPVKLSAEGPTTMTLVCGKDGVKVPQDNNQYCSGTTLTGCNEKSFKDILPKLTENPWQGNASSDKGATLTIKKEAFPAESKSVIIGCTGGSPEKHHCTVKLEFAG | soluble
2 | PQQSTWQMATNTPLECRLVHPIPNYGDAEFSSRAGKKINLDFELKMRRPMGDTRNVSLVSMPPVWRPGEGADRITNLQFFKQFDGYIGGQTAWSLLSELEKGRYPTFSYQDWQSRDQRIEVALSSVLFQQPYNEFSDCISKLLPYS | not soluble
3 | PQYIGGISNTFKYKNWEFSCFVTMQAGNKIRMNPSFDPAFADLNVFSKEYYNRWLNPGDERKTNIPVIPSQDLIRNIGKENIEKAYNTYNYSQNRVADGSFVRMKNISLGYRLPQRFLSHLKIKQMNVKVNVTNPFLIYSDRKLNGQDPEFYRSGGVSLPTPKQYTMTLNVEF | not soluble
4 | PRERVSRVHASSGTTGKPTVVGYTARDLDNWANLVARSIRAAGGKPGDIVHVSYGYGLFTGGLGAHYGAERLGCTVVPMSGGQTEKQVQLINDFRPDIIMVTPSYYCNILEEQRRQGMDPRQSSLRIGIFGAEPWTGQMRADIEAEGGIDAVDIYGLSEVMGPGVASECVETKDGPVV | not soluble
5 | PRVSLFFFSADTDDHAWDKHALVLECAELADSLGLDAIWVPERHFDPFGAPYPSPGLLLAAIAARTSRIALRSGSVVLPLRDPLLVAEEWGVLDSLSRGRMGISLASGWHADDFVLNPEGYERRKDVLEERLADLHTLWNGASITRKGPGGRPVEVRTYPRPERTPEVWLTSSRNPDTWRTAGRLNLHVLTALLEQTIDEITERVGLYHQALTEAGHPTDGRQVTCMLHTHLASDPASVEQRVRGPLIRYLSAHMDLFSKYAAGGGAGIDPDEVTEADRQALLEHGLRRYMGTSGLFGSAESCLPKVERLGAAGITELGCLVDFGLPREQVLESVEELGRLRVALRETAGAPK | soluble
6 | PSLALYVDASGKIKYINEYFLEICRFKSADEATGRSPSELLDTSSRRTLAEKVMETGEGIYNVEKSIKFKALDKPLFTVLSAVPVKDETGTIAGSLMVITDMT | not soluble
7 | PSPREQLMESIRKGKELKQSRPPLKKASDRQLGPPRMCEPSPREQLMESIRKGKELKQSRPPLKKASDRQLGPPRMCEPSPREQLMESIRKGKELKQA | soluble
8 | PSPSTEQSAKKVRKKAENAHNTPLLVLYGSNMGTAEGTARDLADIAMSKGFAPQVATLDSHAGNLPREGAVLIVTASYNGHPPDNAKQFVDWLDQASADEVKGVRYSVFGCGDKNWATTYQKVPAFIDETLAAKGAENIADRGEADASDDFEGTYEEWREHMWSDVAAYFNLDIENSEDNKSTLSLQFVDS | soluble
9 | PSSSQSEEKAPELPKPKKNRCFMCRKKVGLTGFDCRCGNLFCGLHRYSDKHNCPYDYKAEA | soluble
10 | PSTVPIMHQVSATMRSITLSWPQPEQPNGIILDYEIRYYEKEHNEFNSSMARSQTNTARIDGLRPGMVYVVQVRARTVAGYGKFSGKMCFQTLTD | soluble
11 | PTPPNWNMTSSGLEVKSPGDGILTPGENMELVAAVCSACHSLHMVTQQGLSRQRWDESLDWMIEEQGMEDLSGDDREAILEYLSTYYGG | not soluble
12 | PVLTQTSEQAPSSAPRDVQARMLSSTTILVQWKEPEEPNGQIQGYRVYYTMDPTQHVNNWMKHNVADSQITTIGNLVPQKTYSVKVLAFTSIGDGPLSSDIQVITQTG | soluble
13 | PYSSGVDENYYQDLRNRFNHGELYSADSIPSLGGKIFKTAGGREVYGGGGIIPDIFIPLDTAGLNSYMMKVEDSDLIPRYAFLYSDANRVSLSRFKTVEELGAYLDRTYLIFDFASFAQRYGIPMRTSLINEARNRIKKYINAYIAMNFFDLQGYYQLLLHDDPFILQAISLIKEGKTFPLIYDQKGTQSTDPAA | not soluble
14 | QAILYVGHGSRVKKAQQEAAAFLEGCKAHISVPVQEISFLELQEPTIETGFEACVKQGATHIAVVPLLLLTAAHAKHDIPEEIVRVASRYPSVRISYGKPIGIDEEVVKAVYHRMKDIGVPYENARVVLIGRGSSDPDVKRDVTGIANLLQEMVPVKEVIPCFLTACGPNYKEVFSELEKDDGITTFIVPYLLFTGMLMNEIEREVQKLKAHNPNVYLSSYIGFHPHVKNAFLNRVRETAANSEGQFDFDGGSYASAAH | not soluble
15 | QDFAELQGKWYTIVIAADNLEKIEEGGPLRFYFRHIDCYKNCSEMEITFYVITNNQCSKTTVIGYLKGNGTYETQFEGNNIFQPLYITSDKIFFTNKNMDRAGQETNMIVVAGKGNALTPEENEILVQFAHEKKIPVENILNILATDTCPE | soluble
16 | QESVEDSLATVKVVLIPVGQEIVIPFKVDTILKYLKDHFSHLLGIPHSVLQIRYSGKILKNNETLVQHGVKPQEIVQVEIFSTNPDLYPVRRIDGLTDVSQIITV | soluble
17 | QETGISMIGERTNSNGSKAFREAMLSGDWEKCVDIAKQQTRDGAHMLDLCVDYVGRDGTADMATLAALLATSSTLPIMIDSTEPEVIRTGLEHLGGRSIVNSVNFEDGDGPESRYQRIMKLVKQHGAAVVALTIDEEGQARTAEHKVRIAKRLIDDITGSYGLDIKDIVVDCLTFPISTGQEETRRDGIETIEAIRELKKLYPEIHTTLGLSNISFGLNPAARQVLNSVFLNECIEAGLDSAIAHSSKILPMNRIDDRQREVALDMVYDRRTEDYDPLQEFMQLFEGVSAAD | not soluble
18 | QGWEKALYTLVTLYVTTRVIDAIHTRHMKLTAMIVTKKADEIKEAIYGKMVRGITTVPAKGAFTNEQKEMMIIVITRYELYDLEKIVKEVDPKAFTNIVQTTGIFGFFRKD | not soluble
19 | QHPAFMTEMPTDGKYQDTIEALQSMKYDKEDDEDKQMNAEHHKEEGNKHFKFKKYRWATDCYSNGIKENSPDRKLNAVLYFNRAAAQKHLGNLRSAIKDCSMGRKFDPTHLKGVIRGAECLLELEYAKDALNWIESSKKIFAFTKETSDTPDLTDDEKKFIDQLETLRVKSVELSLKEERDKRKSRAEERKETESKKQLLDALKERNLNLCPRVPFDRPELMDMARLTVSLPLMHSHECVKFDDDLNLVWPILLQYPEAGQTDVLTETNELTTVGELLKEVLNSPAQWDPEHKFNFENVRFFVSDEYDEYLMEVYEWNDFKSVLSMPGYQIKQGLPVIMIMTKEKAASSLEALAEDENRYVAK | not soluble
20 | QIKDHLIIVGFGFSGKTISKAAKAAGIPYLIIEMNPEIVQHEKAKGEKIQYGDATFGAVLEHAGIKNARVLVTGIADSSSTGKIVEKAKELNPNICVIVKVHDLQEMKRLNSMGADEIIPEEYETSVEIFVRLLEKYLVPRENIEK | not soluble
21 | QIQLVQSGPELKKPGETVKISCKASGYTFTDYSMYWVKQAPGKGLKRMGWINTETGEPTYADDFKGRFALSLDTSASTAYLHISNLKNEDTATYFCARGLDSWGQGTSVTVSSAKTTPPSVYPLAPGCGDTTGSSVTLGCLVKGYFPESVTVTWNSGSLSSSVHTFPALLQSGLYTMSSSVTVPSSTWPSQTVTCSVAHPASSTTVDKKLEPS | soluble
22 | QKVPAPVDGERIIMELSEADVECTIKIEAEDGYANDIWADLNGNGKYDSGERLDSGEFRDVEFRQTKAIVYGKMAKFLFRGSSAGD | not soluble
23 | QLDGLDVYVAGKADVNFLFDRYISTKTELRSTTYSNYLYTWNHFIRDTFGKKKVRDVKYSDVLFFYTDLINNQGLQINTLETINTVLRPTFQLAVRDDIIRKNPVDGAYCEVKKRNGGARKTRRALTVDQQRKFMEYVAKNPFFYHWYPFFVFLLGTGCRIGEAIGIRWDDIDLENRIIDINHSLTYYQRADDSYKCEFRVSLPKTEAGNRRIPMMQQVYDVLQEEYERQKQEGFCVENVDGMTNFVFTNRFGMPHNPAAVNRAIKR | not soluble
24 | QLKNNAAIQIDRVDNTEITETVSFDAEPTYVDDPEAPAGDETVVEEGAPGTKEVTRTVTTVNGQEESSTVINEVEITAAKPATISRGTKT | not soluble
25 | QLVLVKRSTPPVAVIWSAPDCPYCRKLEKTLEQENASVYVVPVGVAENGFRQAARVYCADDPSQAWRKVMQGSEINGRAKTSCQYPRDMLNDIGFFLGMGRMATPIVVFADGSTVIGWNDQNAWMLLRKKISEQIFFND | not soluble
26 | QMCSSLMIIAFDFDGTLVDSYSCIEEAFYRALKRTYPWLPGKRYIAKLLTKLELQFERPKFGKHGRKIKPPMKIFQGKFARAWFEERAKLTKPLDGAREVLERLKEDGHIVISFSAEDFIPGIKEYRLKISGLYDLFDDVIIFGRDITICEAFSIVREKYGYDTFVWVDDKPWRFIGRGDENTEYVWMYFPYTARFVSDDILAQIPHLHVIYDLWSLLDVVKNLK | not soluble
27 | QNSWDSLQPDREQVIASLNVVELLKRHHYNKPPLNDERSAKIYDSYLKMLDPARMYFTAGDIAEFDRWRNRFDDFLKSGDLDPGFVIYKRHLDRLKGRLDYALAMLDKGVDKIDFSVDESLLIDREKAPWAKDTAELDDLWRKKVKDEVLRLKITGKDDKAIQEQLTKRYKNQLSRLKQTRSEDIFQAYINAFAQSYDPHTQYLSPDNAENFDINMSLSLEGIGAVLQSDNDYVKVVRLVPAGPAAKSKQIATSDKIIGVAQGKGEMVDVVGWRLDEVVKLIRGPKGSQVRLEVIPASNAPNDQTSKIVAITREAVKLEDQAAKKSIIKVDHEGRSYKLGVIDLPAFYLDFKAYRAGDPNYKSTTRDVKKLVAELQKDKVDGIVLDLRNNGGGSLQEATELTGLFIDQGPTVLVRNSDGRVDVLNDDEGKAFYTGPLAVLVNRLSASASEIFAGAMQDYHRALILGGQTFGKGTVQTIQPLNHGELKLTLAKFYRVSGQSTQHQGVIPDISYPSIVDDKEIGESALPDSMPWDTIRPVVKDEANPFKPFLAQLKAQHDARTENNADFVYARERLALAQELMKEKTVSLNEAKRRAQQTSIENRQLAMENALRKSKGQEPLKELKREDENALPEEDDKTKPQDDAYLTESGHILLDYLNLNSAVAK | not soluble
28 | QPLGGESICSARAPAKYSITFTGKWSQTAFPKQYPLFRPPAQWSSLLGAAHSSDYSMWRKNQYVSNGLRDFAERGEAWALMKEIEAAGEALQSVHEVFSAPAVPSGTGQTSAELEVQRRHSLVSFVVRIVPSPDWFVGVDSLDLCDGDRWREQAALDLYPYDAGTDSGFTFSSPNFATIPQDTVTEITSSSPSHPANSFYYPRLKALPPIARVTLLRLRQSPR | soluble
29 | QQMQAESGFVQHVGFKCDNCGIEPIQGVRWHCQDCPPEMSLDFCDSCSDCLHETDIHKEDHQLEPIYRS | soluble
30 | QSWYGGFKDTAELVRGDSNECIELTDDQLSYLAVLWAARCAVGFQEMKLTRLAKETRLSHEVVQKITQIFISQGIVSVFEEYGPSGQKDVAWVQLTEHGCGLAKNLERVSSHS | not soluble
